{"source": "the DeepSol protein solubility set", "data": [{"experiment": "soluble on expression in E. coli; label from the status in PepcDB or PDB records", "values": [{"sequence": "MGSDKIHHHHHHMKKKTAVVFGTFAPLHQGHIDLIQRAKRQCDQVWVVVSGYEGDRGEQVGLTLQKRFRYIREAFRGDELTLVCKLDETNLPRYPMGWQEWLDQMLAEISYDETQQELIFFVGEADYQQELSNRGFETVLQERKFGISATMIRENPSKYWKNIAQPFRRQFTKKVLIMGSASNGKTTLAKDLARYYDAPVSLEYAREYQIKNNVRDDELTPKDYYYLLLGQYDQTSKLIDSNANRGLVIADTNSLVTKGYYDYYMETEDQGDLSGETFDNLFVSILAKEKWDLILFVQPVGSYVNDGFRDMTMAEDHIRHSFSQHLDHMRERYLTTIPLVYLAEDYLGNYEAAKVAIDAIYQAD", "soluble on expression in E. coli": "not soluble"}, {"sequence": "HHHHHHMAEKKQWHETLHDQFGQYFAVDNVLYHEKTDHQDLIIFENAAFGRVMALDGVVQTTERDEFIYHEMMTHVPLLAHGHAKHVLIIGGGDGAMLREVTRHKNVESITMVEIDAGVVSFCRQYLPNHNAGSYDDPRFKLVIDDGVNFVNQTSQTFDVIISDCTDPIGPGESLFTSAFYEGCKRCLNPGGIFVAQNGVCFLQQEEAIDSHRKLSHYFSDVGFYQAAIPTYYGGIMTFAWATDNDALRHLSTEIIQARFLASGLKCRYYNPAIHTAAFALPQYLQDALASQPS", "soluble on expression in E. coli": "soluble"}, {"sequence": "LLLLLPQGGDVRGGPGVREPGQAPQDRGGRDRLLGRGERESPGSDASGGERYSSGGGDGGDGDGGSGGGGDGEEGEGGEEGDEGDGDEGGSGGDESGSGGGPRSMPLSTEGGGSHHKVSVSPVVHVRGLCESVVEADLVEALEKFGTICYVMMMPFKRQALVEFENIDSAKECVTFAADVPVYIAGQQAFFNYSTSKRITRPGNTDDPSGGNKVLLLSIQNPLYPITVDVLYTVCNPVGKVQRIVIFKRNGIQAMVEFESVLCAQKAKAALNGADIYAGCCTLKIEYARPTRLNVIRNDNDSWDYTKPYLGRRDRGKGRQRQAILGDHPSSFRHDGYGSHGPLLPLPSRYRMGSRDTPELVAYPLPQASSSYMHGGSPSGSVVMVSGLHQLKMNCSRVFNLFCLYGNIEKVKFMKTIPGTALVEMGDEYAVERAVTHLNNVKLFGKRLNVCVSKQHSVVPSQIFELEDGTSSYKDFAMSKNNRFTSAGQASKNIIQPPSCVLHYYNVPLCVTEETFTKLCNDHEVLPFIKYKVFDAKASAKTLSGLLEWKCKTDAVEALTALNHYQIRVPNGSNPYTLKLCFSTSSHL", "soluble on expression in E. coli": "soluble"}, {"sequence": "SDMGTSALSKKPWWTLPQNFHAPMVFHMEEDQEELIFGHGDTYLRCIEVHSHTLIQLESWFTATGQTRVTVGPHRARQWLLHMFCCVGSQDSYHHARGLEMLERVRSQPLTNDDLVTSISVPPYTGDLSLAPRISGTVCLSVPQPSPYQVIGCSGFHLSSLYP", "soluble on expression in E. coli": "soluble"}, {"sequence": "MGFHPIELRIQILGLSAFGVDSKEIAAALDVPVRSVQRIIQRAKERGFDPATDPRVKMEYVEDAERSGRPKKGSKVMAAKSQAGSTSGSESVVAAGSEVGDGNRNSMPEAQA", "soluble on expression in E. coli": "not soluble"}, {"sequence": "MGSDKIHHHHHHMKRTPLFEKHVELGAKMVDFAGWEMPLYYTSIFEEVMAVRKSVGMFDVSHMGEFLVKGPEAVSFIDFLITNDFSSLPDGKAIYSVMCNENGGIIDDLVVYKVSPDEALMVVNAANIEKDFNWIKSHSKNFDVEVSNISDTTALIAFQGPKAQETLQELVEDGLEEIAYYSFRKSIVAGVETLVSRTGYTGEDGFELMLEAKNAPKVWDALMNLLRKIDGRPAGLGARDVCRLEATYLLYGQDMDENTNPFEVGLSWVVKLNKDFVGKEALLKAKEKVERKLVALELSGKRIARKGYEVLKNGERVGEITSGNFSPTLGKSIALALVSKSVKIGDQLGVVFPGGKLVEALVVKKPFYRGSVRREV", "soluble on expression in E. coli": "not soluble"}, {"sequence": "MSLSVRFAGMATCVPKRVVSNLTDCKPQIRPERERLVRNIGIELRRLTQEWQCFSDLAFDAASKLIESLEWKLEEIDALIVVTQSPDYLAPATAIILQDRLGLPHTTLAFDVNLGCSGYPFGLHLLGSLISAGGIKKGLVLVGDSGAQLNDPIFSDAGTATAMEFCADAPPMYFDLNSDGSGHKAIILPVGGHREPVGIQHLVPFRENENDHWHRAIDLQLDGTAVLSFSTQRVPPAVEKLLEYANASKDEVDYFIFHQANRMINETIRKKLALPVEKVPSTLRDFGNTSGASLPVTMTARINKQLEEGSKRLVLSGFGIGLSWGTCLVDIQGAKFPDLIESEGHHHHHH", "soluble on expression in E. coli": "not soluble"}, {"sequence": "MTALITQFWQQVETALKTANPQEKCRLVNDLYDNLLPQIQLIKLEDFPEIVPQDNIAAFPEKPLLVAPKDVPKRSFATEEGYAATLHAIAHIEFNAINLGLDAAWRFGRNAQEELGEGLAFVKDWLRVAREESTHFSLVNEHLKTLGYQYGDFEAHAGLWEMAQATAHDIWERMALVPRVLEARGLDATPVLQEKIAQRKDFAAVNILDIILRDEIGHVYIGNHWYHALSKKRGLDAMKCFTELLHKYRIVIFKGVINTDARIQAGFTQHELDWIYEVEQTLKSYIKKLEHHHHHH", "soluble on expression in E. coli": "soluble"}, {"sequence": "MSLDEVIIGVCWPFSVNRDGMADGLHLALDEINTRRLAGPYTIRLVERDDEFDSKKHKNIAREFADRADMSAVLGYYDDGPSIRASSIYESSRLLHLMIGANNTDMTSHGFNYINRTILSSDRIALKLAKLTTDLGYRKIVVLWEEDAYGEDLAYQYQVGLDQLNAQVVYQWSYSRKNVDFRLLVNDLKIVDADMIFFSGLEPIAGDFLRMARKVGLKTPVIGAFSNTPEMRAHAGAVGFEGAIMFDFYNPCSQTPENRLFVNKFFSRYGRYPDAWAAQSYDALHILAKAIKFTGSRNPLDLSYAIRYADAFNGANGRYKFDRAGNLEDKPIYLYKIQNGVPVLLEEGHHHHHH", "soluble on expression in E. coli": "soluble"}, {"sequence": "MSLKGAQILVVEDELIVGMMIKLKLAKMGYCVSCMASTGADAVAMVEKVRPELVLMDIRLKGSLDGVEAAMMIRKISNIPIVFITADSSLETRERAELACPQGFLLKPFMDEELGSLVRSVFSNSMGGASAVNANEGHHHHHH", "soluble on expression in E. coli": "not soluble"}, {"sequence": "MAHHHHHHMSFAGLQKRLKNKAVATTTTNSTPPSSDAKTDNIESSSSVYDVAAREARANHEERKRQRSPHDKENTAYNPTINERNGPADMLSDHPSVEKASSKTLTETEFLERRHLAEEVVLQCAEAMSRNMELAATSIDKIDIKKESEVYDMSGLPLPLCQFLEQRLQRSSDATAMLISTCEEEEHNLVSALRSPSNLPMLFPPQVEDFVTTLRTLWLALCWHWVMALRGKEGNEGKEVSENGWSYNVYLLSRHALPITVRNTRGRDVALALQAWQEAYRVRQNMLDFLAYILHDMGVVLRFSGDDASKGDENLRIVPPKIADSIFCMVQHLRRRDFTTVRQAYVELTMGTANWKLGLFSGGEVHMRRSMERIERRRIEHLLHNERAVRLLHVLRELIEFVQKNEVMLLHTGIFAREKSMKEHSP", "soluble on expression in E. coli": "not soluble"}, {"sequence": "SMSRKRPPSDIHDSDGSSSSSHQSLKSTAKWAASLENLLEDPEGVKRFREFLKKEFSEENVLFWLACEDFKKMQDKTQMQEKAKEIYMTFLSSKASSQVNVEGQSRLNEKILEEPHPLMFQKLQDQIFNLMKYDSYSRFLKSDLFLKHKRTEE", "soluble on expression in E. coli": "soluble"}, {"sequence": "MSFGYLIATSQPCELLTKSRGETFSLIMDKMDLWIYFRFCEGNIYTIRKNETESCLTERGGEWLKHIYEFNRGSFIFSYVLLKKRESEENFTEIVLKSIKNNKILTVKVRSGLHFDLRNIYRIEM", "soluble on expression in E. coli": "not soluble"}, {"sequence": "MGSDKIHHHHHHMKIALDPYMIRHLPLDRLPHAVAELGYDQIELSPRSDFLDWWVMPRATRARMTAFRHALRASGVGLASLQPMYRWASPFEDERQWAVRCWKKAIEVATEMECALMVSEFGRGASPERSVGERPGANPKELCEAAWFRSMDELLPILERERIVLSVEPHPEDWIEQLQPAIDIVTNLGSPSLKLSYIAPHTFYYGDDMAAMIAQAAPILAHVRVADTFDHRKSSQLRYIVNPPGSNQIRVHQHLDIGQGEIDWDTFFRALGDAGFDGVMSSCVFAWEDRAEASSRYMRDTIQRYVDRHFDRAAAR", "soluble on expression in E. coli": "not soluble"}, {"sequence": "MSEANSNSEFQTFIEQENQKAAIQAAISKLTETCWDKCVGKPGSKLDRAESECIANCAERFLDSSSFIMQRLMKKQ", "soluble on expression in E. coli": "soluble"}, {"sequence": "MNDAVEVELEPVTYHYFNAGAAGKDLNTNETYIGKMLEEKTGVNFKVEHLVGDINQRTGVMIASGDYPDVIVPDAAIDALLDAGAFIPLNDLLEEHGPNLLEAYGDYLHMFTHDDGNIYYIPFGATVNEFQPNPNIDQGAFWIQRGILKEYGFPEINTLDEYLDIITRYAKENPEIDGMRTIPFTGLTYDWRFFAFTNVPNHLAGYPNDGGVMVDMDTHEASVYADSEYAKRWLKALNELNAEGLLDQEMFVMNYDEYLEKLSSGRVLGFFDYGWQFGTASNALRDAGNPDREYMALPVVFDEGIKDQYIDPPAFTGNRGVGITVNAENPERIIQFWDELIKEDNQRLVMWGIEGEHYNVDENGRFYQTEEQIEIVNNQNFRDEFGMTTFEWSWPRINGTFSDGNAVEARRQPEVAFASYNDDDKEYLEAYGISTFAELFSEPDERPWYPAWSANIEQGSPQQIFEERADEILRRHYARIVLADPADFDKEWDDFVQAYRSLDVDAYENFFTEVVQARVRGEWLEHHHHHH", "soluble on expression in E. coli": "soluble"}, {"sequence": "MAHHHHHHMHMNNYHYNNYNVNFNPYNCGVVQESEKKNVGNVNNKVVLQKNYSNEYEMKYKEENKNNKINYLENLLNEPTAKEKKIKEEKTNILSIIEAPTVIEEMRIKKFQKKDDSVKIICPYLTKKVCQKHNKECNKVHFKKIISEHTDVSLGDCSYLDTCRHIETCKFVHYAVDKDDQQMNMNTQENLSQSKLSFSSNIKENVYGPQWIRCDLRNFDLSIFNKYVSVVMADPPWDIHMDLPYGTMTDNEMKLLPVQLIQDEGMIFLWVTGRAMELARECLQIWGYKRVEEILWVKTNHLQRIIRTGRTGHWLNHSKEHCLVGIKGNPIINRNIDCNVIVSEVRETSRKPDEIYSLIERLCPQNLKIELFGRPHNCRSNWITLGNQLNGVVLHHPQIKERYNKVATQFNLPLCEK", "soluble on expression in E. coli": "not soluble"}, {"sequence": "MSKFWSPFVKDLVPYVPGEQPKLSRLVKLNTNENPYGPSPQALAAMQAELNDDLRLYPDPNGERLKQAVAAHYGVQANQVFVGNGSDEVLAHIFHGLFQHDLPLLFPDVTYSFYPVYCGLYGIAHEKIALDERFRIRVEDYARPNGGIIFPNPNAPTGCLLPLDAIEAMLKASPDSVVVVDEAYVDFGGESAIALVDRYPNLLVTQTLSKSRSLAGLRVGLAVGHADLVEALERIKNSFNSYPLDRLAIAGAAAAFEDDAYFRRTCQAVIDSREALSASLQALGFEVLPSAANFVFARHPRHDAGQIASTLREQGVIVRHFKQARIDQFLRITIGSPEQNQALLDALHFLK", "soluble on expression in E. coli": "not soluble"}, {"sequence": "GPLGSPPSKEILTLKQVQEFLKDGDDVVILGVFQGVGDPGYLQYQDAANTLREDYKFHHTFSTEIAKFLKVSLGKLVLMQPEKFQSKYEPRMHVMDVQGSTEASAIKDYVVKHALPLVGHRKTSNDAKRYSKRPLVVVYYSVDFSFDYRTATQFWRNKVLEVAKDFPEYTFAIADEEDYATEVKDLGLSESGGDVNAAILDESGKKFAMEPEEFDSDALREFVMAFKKGKLKPVIKSQPVPKNNKGAAAS", "soluble on expression in E. coli": "soluble"}, {"sequence": "GRSLGKLGMRYGKKRVHIAKRNLELAFPEKTPEEVQHIVEENFKNTGMALIETGITWFWPTWRFKTLIVEKDIHALKEKGAEGK", "soluble on expression in E. coli": "not soluble"}]}]}
